Measured values reported in patent US6703362 (dated 2004).
Several values for one entry are separate records, joined by “and”; a condition that tells them apart may be missing. Identical values can stand only once. Ends that are not written are not given here. * marks the point of attachment. Dansyl = CN(C)c1cccc2c(S(=O)(=O)*)cccc12

Tests used:
C2BBe1 fixed cells [1] = experiment: competition ELISA on fixed cells; vs GST-PAX2
C2BBe1 fixed cells [2] = experiment: competition ELISA on fixed cells; vs GST-HAX42
C2BBe1 fixed cells [3] = experiment: competition ELISA on fixed cells; vs GST-P31
[4] = biological target: C2BBe1 fixed cells (GST-P31 competition); experiment: competition ELISA on fixed cells; vs GST-P31

Row | IC50 (C2BBe1 fixed cells [1]) | IC50 (C2BBe1 fixed cells [2]) [nM] | IC50 (C2BBe1 fixed cells [3]) [nM] | IC50 [4] [nM] | Binder
1 | 600 nM and 1000 nM | 230 | – | – | K(Dansyl)STPPSREAYSRPYSVDSDSDTNAKHSSHNRRLRTRSRPNG-NH2 [ELAN018(PAX2)]
2 | – | – | 500 | – | K(Dansyl)SARDSGPAEDGSRAVRLNGVENANTRKSSRSNPRGRRHPGG-NH2 [ELAN024(P31)]
3 | – | 5500 | – | – | K(Dansyl)SDHALGTNLRSDNAKEPGDYNCCGNGNSTGRKVFNRRRPSAIPT-NH2 (cysteine pairing not given here) [ELAN021(HAX42)]
4 | 700 nM | – | 1700 | – | K(Dansyl)SDHALGTNLRSDNAKEPGDYNCCGNGNSTGRKVFNRRRPSAIPT-NH2 (cysteine pairing not given here) [Z21(HAX42)]
5 | – | – | – | 940 | K(Dansyl)SARDSGPAEDGSRAVRLNGVENANTRKSSRSNPRGRRHPGG-NH2 [z024(P31)]
